{"source": "IntAct's records for PubMed 25218436", "key": {"cblb_human CBLB [1]": {"molecular_target": "cblb_human CBLB (UniProt Q13191)", "sequence (Q13191 whole entry)": "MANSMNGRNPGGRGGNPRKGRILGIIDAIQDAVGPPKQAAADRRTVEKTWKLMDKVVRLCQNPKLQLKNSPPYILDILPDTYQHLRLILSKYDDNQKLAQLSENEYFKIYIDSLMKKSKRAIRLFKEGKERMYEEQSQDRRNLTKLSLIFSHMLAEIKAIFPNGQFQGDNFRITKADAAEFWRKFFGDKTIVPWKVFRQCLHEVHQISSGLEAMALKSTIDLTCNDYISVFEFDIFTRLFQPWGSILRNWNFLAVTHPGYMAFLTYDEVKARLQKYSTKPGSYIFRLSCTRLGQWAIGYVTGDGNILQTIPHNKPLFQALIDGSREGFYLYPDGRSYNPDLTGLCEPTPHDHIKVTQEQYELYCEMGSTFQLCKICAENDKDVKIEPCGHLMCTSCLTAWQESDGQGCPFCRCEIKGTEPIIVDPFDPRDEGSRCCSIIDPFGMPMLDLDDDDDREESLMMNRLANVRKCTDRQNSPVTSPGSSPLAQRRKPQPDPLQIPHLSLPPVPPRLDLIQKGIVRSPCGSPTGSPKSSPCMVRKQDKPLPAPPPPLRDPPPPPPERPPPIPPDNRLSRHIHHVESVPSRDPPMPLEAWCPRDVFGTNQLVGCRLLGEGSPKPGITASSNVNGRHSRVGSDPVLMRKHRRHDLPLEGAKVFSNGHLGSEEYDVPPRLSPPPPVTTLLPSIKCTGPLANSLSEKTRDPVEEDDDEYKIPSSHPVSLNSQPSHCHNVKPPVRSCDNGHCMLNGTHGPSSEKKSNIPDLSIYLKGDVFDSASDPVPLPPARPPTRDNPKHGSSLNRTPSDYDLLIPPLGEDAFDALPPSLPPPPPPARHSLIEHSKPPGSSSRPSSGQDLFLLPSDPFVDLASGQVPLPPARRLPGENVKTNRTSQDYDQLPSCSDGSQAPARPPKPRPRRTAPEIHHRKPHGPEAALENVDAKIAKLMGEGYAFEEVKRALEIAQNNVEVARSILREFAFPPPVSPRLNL"}, "cblb_human CBLB [2]": {"molecular_target": "cblb_human CBLB (UniProt Q13191)", "remark": "listed apart in the source"}, "cblb_human CBLB [3]": {"molecular_target": "cblb_human CBLB (UniProt Q13191)", "remark": "listed apart in the source"}, "cblb_human CBLB [4]": {"molecular_target": "cblb_human CBLB (UniProt Q13191)", "remark": "listed apart in the source"}}}
{"substance": "SH2/SH3 adapter protein NCK1 (Homo sapiens) (from UniProt P16333) W38K", "values": [{"measurement": "effect of a mutation on the interaction", "setting": "cblb_human CBLB [1]", "result": "disrupting interaction"}]}
{"substance": "SH2/SH3 adapter protein NCK1 (Homo sapiens) (from UniProt P16333) W38K;W143K;W229K", "values": [{"measurement": "effect of a mutation on the interaction", "setting": "cblb_human CBLB [2]", "result": "disrupting interaction"}]}
{"substance": "SH2/SH3 adapter protein NCK1 (Homo sapiens) (from UniProt P16333) W143K", "values": [{"measurement": "effect of a mutation on the interaction", "setting": "cblb_human CBLB [3]", "result": "disrupting interaction"}]}
{"substance": "SH2/SH3 adapter protein NCK1 (Homo sapiens) (from UniProt P16333) W229K", "values": [{"measurement": "effect of a mutation on the interaction", "setting": "cblb_human CBLB [4]", "result": "disrupting interaction"}]}
